The binders below were run against T1, human FcRn (His-tagged alpha chain with beta 2 microglobulin) (human, UniProt P55899 24-297; P61769 21-119, limits assumed) (assay: Biacore, human FcRn on chip, pH 6.0).
T1 construct: also called hFcRn; not shown: His tag

Row | Binder | fold FcRn binding [fold] | fold FcRn binding relative to WT IgG2 [fold] | binding result
1 | anti-VEGF IgG2 N434S (antibody) heavy: EVQLVESGGGLVQPGGSLRLSCAASGYTFTNYGMNWVRQAPGKGLEWVGWINTYTGEPTYAADFKRRFTFSLDTSKSTAYLQMNSLRAEDTAVYYCAKYPHYYGSSHWYFDVWGQGTLVTVSSASTKGPSVFPLAPCSRSTSESTAALGCLVKDYFPEPVTVSWNSGALTSGVHTFPAVLQSSGLYSLSSVVTVPSSNFGTQTYTCNVDHKPSNTKVDKTVERKCCVECPPCPAPPVAGPSVFLFPPKPKDTLMISRTPEVTCVVVDVSHEDPEVQFNWYVDGVEVHNAKTKPREEQFNSTFRVVSVLTVVHQDWLNGKEYKCKVSNKGLPAPIEKTISKTKGQPREPQVYTLPPSREEMTKNQVSLTCLVKGFYPSDIAVEWESNGQPENNYKTTPPMLDSDGSFFLYSKLTVDKSRWQQGNVFSCSVMHEALHSHYTQKSLSLSPGK light: not shown | 4.9 | – | –
2 | anti-VEGF IgG2 N434E (antibody) heavy: EVQLVESGGGLVQPGGSLRLSCAASGYTFTNYGMNWVRQAPGKGLEWVGWINTYTGEPTYAADFKRRFTFSLDTSKSTAYLQMNSLRAEDTAVYYCAKYPHYYGSSHWYFDVWGQGTLVTVSSASTKGPSVFPLAPCSRSTSESTAALGCLVKDYFPEPVTVSWNSGALTSGVHTFPAVLQSSGLYSLSSVVTVPSSNFGTQTYTCNVDHKPSNTKVDKTVERKCCVECPPCPAPPVAGPSVFLFPPKPKDTLMISRTPEVTCVVVDVSHEDPEVQFNWYVDGVEVHNAKTKPREEQFNSTFRVVSVLTVVHQDWLNGKEYKCKVSNKGLPAPIEKTISKTKGQPREPQVYTLPPSREEMTKNQVSLTCLVKGFYPSDIAVEWESNGQPENNYKTTPPMLDSDGSFFLYSKLTVDKSRWQQGNVFSCSVMHEALHEHYTQKSLSLSPGK light: not shown | – | < 0.5 | –
3 | anti-VEGF IgG2 N434V (antibody, also called 434V in IgG2) heavy: EVQLVESGGGLVQPGGSLRLSCAASGYTFTNYGMNWVRQAPGKGLEWVGWINTYTGEPTYAADFKRRFTFSLDTSKSTAYLQMNSLRAEDTAVYYCAKYPHYYGSSHWYFDVWGQGTLVTVSSASTKGPSVFPLAPCSRSTSESTAALGCLVKDYFPEPVTVSWNSGALTSGVHTFPAVLQSSGLYSLSSVVTVPSSNFGTQTYTCNVDHKPSNTKVDKTVERKCCVECPPCPAPPVAGPSVFLFPPKPKDTLMISRTPEVTCVVVDVSHEDPEVQFNWYVDGVEVHNAKTKPREEQFNSTFRVVSVLTVVHQDWLNGKEYKCKVSNKGLPAPIEKTISKTKGQPREPQVYTLPPSREEMTKNQVSLTCLVKGFYPSDIAVEWESNGQPENNYKTTPPMLDSDGSFFLYSKLTVDKSRWQQGNVFSCSVMHEALHVHYTQKSLSLSPGK light: not shown | – | < 0.5 | –
4 | anti-VEGF IgG2 N434D (antibody) heavy: EVQLVESGGGLVQPGGSLRLSCAASGYTFTNYGMNWVRQAPGKGLEWVGWINTYTGEPTYAADFKRRFTFSLDTSKSTAYLQMNSLRAEDTAVYYCAKYPHYYGSSHWYFDVWGQGTLVTVSSASTKGPSVFPLAPCSRSTSESTAALGCLVKDYFPEPVTVSWNSGALTSGVHTFPAVLQSSGLYSLSSVVTVPSSNFGTQTYTCNVDHKPSNTKVDKTVERKCCVECPPCPAPPVAGPSVFLFPPKPKDTLMISRTPEVTCVVVDVSHEDPEVQFNWYVDGVEVHNAKTKPREEQFNSTFRVVSVLTVVHQDWLNGKEYKCKVSNKGLPAPIEKTISKTKGQPREPQVYTLPPSREEMTKNQVSLTCLVKGFYPSDIAVEWESNGQPENNYKTTPPMLDSDGSFFLYSKLTVDKSRWQQGNVFSCSVMHEALHDHYTQKSLSLSPGK light: not shown | – | < 0.5 | –

Second part, the binder after the results:

Row | fold FcRn binding [fold] | fold FcRn binding relative to WT IgG2 [fold] | binding result | Binder
5 | – | < 0.5 | – | anti-VEGF IgG2 N434P (antibody) heavy: EVQLVESGGGLVQPGGSLRLSCAASGYTFTNYGMNWVRQAPGKGLEWVGWINTYTGEPTYAADFKRRFTFSLDTSKSTAYLQMNSLRAEDTAVYYCAKYPHYYGSSHWYFDVWGQGTLVTVSSASTKGPSVFPLAPCSRSTSESTAALGCLVKDYFPEPVTVSWNSGALTSGVHTFPAVLQSSGLYSLSSVVTVPSSNFGTQTYTCNVDHKPSNTKVDKTVERKCCVECPPCPAPPVAGPSVFLFPPKPKDTLMISRTPEVTCVVVDVSHEDPEVQFNWYVDGVEVHNAKTKPREEQFNSTFRVVSVLTVVHQDWLNGKEYKCKVSNKGLPAPIEKTISKTKGQPREPQVYTLPPSREEMTKNQVSLTCLVKGFYPSDIAVEWESNGQPENNYKTTPPMLDSDGSFFLYSKLTVDKSRWQQGNVFSCSVMHEALHPHYTQKSLSLSPGK light: not shown
6 | – | < 0.5 | – | anti-VEGF IgG2 N434K (antibody) heavy: EVQLVESGGGLVQPGGSLRLSCAASGYTFTNYGMNWVRQAPGKGLEWVGWINTYTGEPTYAADFKRRFTFSLDTSKSTAYLQMNSLRAEDTAVYYCAKYPHYYGSSHWYFDVWGQGTLVTVSSASTKGPSVFPLAPCSRSTSESTAALGCLVKDYFPEPVTVSWNSGALTSGVHTFPAVLQSSGLYSLSSVVTVPSSNFGTQTYTCNVDHKPSNTKVDKTVERKCCVECPPCPAPPVAGPSVFLFPPKPKDTLMISRTPEVTCVVVDVSHEDPEVQFNWYVDGVEVHNAKTKPREEQFNSTFRVVSVLTVVHQDWLNGKEYKCKVSNKGLPAPIEKTISKTKGQPREPQVYTLPPSREEMTKNQVSLTCLVKGFYPSDIAVEWESNGQPENNYKTTPPMLDSDGSFFLYSKLTVDKSRWQQGNVFSCSVMHEALHKHYTQKSLSLSPGK light: not shown
7 | – | < 0.5 | – | anti-VEGF IgG2 N434R (antibody) heavy: EVQLVESGGGLVQPGGSLRLSCAASGYTFTNYGMNWVRQAPGKGLEWVGWINTYTGEPTYAADFKRRFTFSLDTSKSTAYLQMNSLRAEDTAVYYCAKYPHYYGSSHWYFDVWGQGTLVTVSSASTKGPSVFPLAPCSRSTSESTAALGCLVKDYFPEPVTVSWNSGALTSGVHTFPAVLQSSGLYSLSSVVTVPSSNFGTQTYTCNVDHKPSNTKVDKTVERKCCVECPPCPAPPVAGPSVFLFPPKPKDTLMISRTPEVTCVVVDVSHEDPEVQFNWYVDGVEVHNAKTKPREEQFNSTFRVVSVLTVVHQDWLNGKEYKCKVSNKGLPAPIEKTISKTKGQPREPQVYTLPPSREEMTKNQVSLTCLVKGFYPSDIAVEWESNGQPENNYKTTPPMLDSDGSFFLYSKLTVDKSRWQQGNVFSCSVMHEALHRHYTQKSLSLSPGK light: not shown
8 | – | – | binds | anti-VEGF IgG2 N434T (antibody) heavy: EVQLVESGGGLVQPGGSLRLSCAASGYTFTNYGMNWVRQAPGKGLEWVGWINTYTGEPTYAADFKRRFTFSLDTSKSTAYLQMNSLRAEDTAVYYCAKYPHYYGSSHWYFDVWGQGTLVTVSSASTKGPSVFPLAPCSRSTSESTAALGCLVKDYFPEPVTVSWNSGALTSGVHTFPAVLQSSGLYSLSSVVTVPSSNFGTQTYTCNVDHKPSNTKVDKTVERKCCVECPPCPAPPVAGPSVFLFPPKPKDTLMISRTPEVTCVVVDVSHEDPEVQFNWYVDGVEVHNAKTKPREEQFNSTFRVVSVLTVVHQDWLNGKEYKCKVSNKGLPAPIEKTISKTKGQPREPQVYTLPPSREEMTKNQVSLTCLVKGFYPSDIAVEWESNGQPENNYKTTPPMLDSDGSFFLYSKLTVDKSRWQQGNVFSCSVMHEALHTHYTQKSLSLSPGK light: not shown
9 | 14.8 | – | – | anti-VEGF IgG2 M428L/N434S (antibody) heavy: EVQLVESGGGLVQPGGSLRLSCAASGYTFTNYGMNWVRQAPGKGLEWVGWINTYTGEPTYAADFKRRFTFSLDTSKSTAYLQMNSLRAEDTAVYYCAKYPHYYGSSHWYFDVWGQGTLVTVSSASTKGPSVFPLAPCSRSTSESTAALGCLVKDYFPEPVTVSWNSGALTSGVHTFPAVLQSSGLYSLSSVVTVPSSNFGTQTYTCNVDHKPSNTKVDKTVERKCCVECPPCPAPPVAGPSVFLFPPKPKDTLMISRTPEVTCVVVDVSHEDPEVQFNWYVDGVEVHNAKTKPREEQFNSTFRVVSVLTVVHQDWLNGKEYKCKVSNKGLPAPIEKTISKTKGQPREPQVYTLPPSREEMTKNQVSLTCLVKGFYPSDIAVEWESNGQPENNYKTTPPMLDSDGSFFLYSKLTVDKSRWQQGNVFSCSVLHEALHSHYTQKSLSLSPGK light: not shown
